Experimental data published in patent US20160199445A1 (CENTRE NATIONAL DE LA RECHERCHE SCIENTIFIQUE, published 2016).

Molecular target: T1, Purified Arp2/3 complex
T1 construct: Used in fluorescence anisotropy, pyrene-actin and TIRF assays
Test: fluorescence anisotropy, competition with labelled ArpinA bound to purified Arp2/3 complex

B1: ArpinA peptide (residues 211-226 of full length Arpin), unlabelled synthetic peptide (peptide)
peptide: EIREQGDGAEDEEWDD
notes: Purchased from Proteogenix; also called Arpin Acidic peptide; Acidic peptide
  Kd: 1030 nM
